CN108948199A (BOAOXIN BIOTECHNOLOGY NANJING CO LTD, dated 2018)

Legend:
重组人CSF1R带his标签的蛋白 = target: T1, 重组人CSF1R带his标签的蛋白 (human, UniProt P07333 20-512); experiment: ELISA screen of hybridoma supernatant on coated human CSF1R-his
T1 construct: Bought protein used as coating antigen for hybridoma screening; also called 人CSF1R-his; CSF1R-his蛋白抗原; not shown: his tag

生物素标记人CSF1R Fc蛋白 = target: T2, 生物素标记人CSF1R Fc蛋白 (human, UniProt P07333 20-512, biotin-labelled (site not stated)); experiment: binding assays of Example 2 (capture ELISA with biotin-labelled human CSF1R Fc; flow cytometry on 293F cells expressing human CSF1R), summarised in Table 2
T2 construct: range 20-512; also called CSF1R Fc biotin; 人CSF1R抗原; not shown: human IgG1 Fc tag at the C-terminus
T2 sequence (P07333 20-512 limits assumed): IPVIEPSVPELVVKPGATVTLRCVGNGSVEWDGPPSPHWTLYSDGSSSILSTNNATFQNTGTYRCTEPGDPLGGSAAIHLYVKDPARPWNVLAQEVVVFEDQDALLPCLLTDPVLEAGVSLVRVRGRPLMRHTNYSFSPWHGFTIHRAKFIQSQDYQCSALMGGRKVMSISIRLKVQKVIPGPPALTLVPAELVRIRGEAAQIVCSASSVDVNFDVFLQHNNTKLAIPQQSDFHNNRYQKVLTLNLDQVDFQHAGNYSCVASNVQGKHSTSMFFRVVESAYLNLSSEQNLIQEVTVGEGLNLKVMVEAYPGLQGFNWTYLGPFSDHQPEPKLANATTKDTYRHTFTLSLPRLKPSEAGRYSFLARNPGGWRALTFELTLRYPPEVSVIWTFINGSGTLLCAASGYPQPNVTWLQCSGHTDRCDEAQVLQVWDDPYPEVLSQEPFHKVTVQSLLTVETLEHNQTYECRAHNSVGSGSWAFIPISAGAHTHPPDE

T1 sequence (P07333 20-512 limits assumed): as above

binding result (重组人CSF1R带his标签的蛋白): binds
binding result (生物素标记人CSF1R Fc蛋白): binds
B1: 1G6 抗人CSF-1R小鼠单克隆抗体 (antibody, V domains shown)
VH: QIQLVQSGPELKKPGETVKISCKASGYTFIIYGMNWVKQTPGRGLKWMGWINTYTGEPTYADDFKGRFAFSLETSASTASLQINNLKNEDTATYFCAREVYDGYPSHYAMDYWGQGTSVTVSS
VL: DIVMTQAAPSVPVTPGESVSISCRSSKSLLHSNGNTYLYWFLQRPGQSPQLLIYWMSNLASGVPDRFSGSGSGTAFTLRISRVEAEDVGVYYCLQHLEYPYTFGGGTKLEIK
notes: also called 1G6抗体; 本发明的抗人CSF-1R单克隆抗体
